Experimental data taken from patent publication US20260144882A1 (BIO THERA SOLUTIONS, published 2026).
Numbering of substitutions follows the chain as printed.

B1: 10F4-1H11 scFv (scFv, V domains shown)
VH: EVQLVESGGGLVQPGGSLRLSCAASGYTFTGFWMSWVRQAPGKGLEWVSSISPDSGTKHYADSVKGRFTISRDNSKNTLYLQMNSLRAEDTAVYYCAREYSDVVDYVSVRTPLDYWGQGTLVTVSS
VL: DIQMTQSPSSLSASVGDRVTITCRASQGISSYLAWYQQKPGKAPKLLIYAASSLQSGVPSRFSGSGSGTDFTLTISSLQPEDFATYYCQQHYTTPPTFGQGTKVEIKR
notes: phage clone supernatant
B2: 10F4-2A1 scFv (scFv, V domains shown)
VH: EVQLVESGGGLVQPGGSLRLSCAASGYTFDDYDMSWVRQAPGKGLEWVSGIKAHSDNKRYADSVKGRFTISRDNSKNTLYLQMNSLRAEDTAVYYCAREYSDVVDYVSVRTPLDYWGQGTLVTVSS
VL: B1 VL
notes: phage clone supernatant
B3: 10F4-2A5 scFv (scFv, V domains shown)
VH: B2 VH with T28S, D30T, A53T, H54Y, S55K, D56S, N57D, K58A
VL: B1 VL
notes: phage clone supernatant
B4: 10F4-2C4 scFv (scFv, V domains shown)
VH: B2 VH with T28S, D30G, D33W, G50V, K52D, A53S, H54G, D56G
VL: B1 VL
notes: phage clone supernatant
B5: 10F4-2C6 scFv (scFv, V domains shown)
VH: EVQLVESGGGLVQPGGSLRLSCAASGFNFGGFDMSWVRQAPGKGLEWVSGIKQYKGYTSYADSVKGRFTISRDNSKNTLYLQMNSLRAEDTAVYYCAREYSDVVDYVSVRTPLDYWGQGTLVTVSS
VL: B1 VL
notes: phage clone supernatant
B6: 10F4-2C12 scFv (scFv, V domains shown)
VH: B2 VH with T28N, D30G, D33S, G50V, K52D, A53T, H54T, D56A, N57Y, K58T
VL: B1 VL
notes: phage clone supernatant
B7: 10F4-2E1 scFv (scFv, V domains shown)
VH: B5 VH with N28T, G30T, G31T, F32Y, Q53Y, Y54S, G56Y, S59H
VL: B1 VL
notes: phage clone supernatant
B8: 10F4-2E4 scFv (scFv, V domains shown)
VH: EVQLVESGGGLVQPGGSLRLSCAASGYTFDSYWMSWVRQAPGKGLEWVSAIDGTDSVAYYADSVKGRFTISRDNSKNTLYLQMNSLRAEDTAVYYCAREYSDVVDYVSVRTPLDYWGQGTLVTVSS
VL: B1 VL
notes: phage clone supernatant
B9: 10F4-2E6 scFv (scFv, V domains shown)
VH: EVQLVESGGGLVQPGGSLRLSCAASGFSFGDYWMSWVRQAPGKGLEWVSAIDQGKATSFYADSVKGRFTISRDNSKNTLYLQMNSLRAEDTAVYYCAREYSDVVDYVSVRTPLDYWGQGTLVTVSS
VL: B1 VL
notes: phage clone supernatant
B10: 10F4-2E8 scFv (scFv, V domains shown)
VH: B5 VH with G31N, F32Y, G50S, K52I, Q53P, Y54H, K55G, G56D, T58S, S59F
VL: B1 VL
notes: phage clone supernatant
B11: 10F4-2F11 scFv (scFv, V domains shown)
VH: B2 VH with T28N, D30T, D31S, A53T, H54G, S55G, D56G, N57S, K58A
VL: B1 VL
notes: phage clone supernatant
B12: 10F4-2G2 scFv (scFv, V domains shown)
VH: B2 VH with T28N, D30T, G50S, K52I, H54S, S55G, D56S, N57G, K58N, R59Y
VL: B1 VL
notes: phage clone supernatant
B13: 10F4-2H5 scFv (scFv, V domains shown)
VH: B9 VH with F27Y, S28I, G30T, D31N, A50S, K55S, A56G, T57N, S58I
VL: B1 VL
notes: phage clone supernatant

Target: T1, human Nectin-4 extracellular antigen hNectin-4-His (human, UniProt Q96NY8 32-349)
T1 construct: C-terminal 8xHis tag included
T1 sequence: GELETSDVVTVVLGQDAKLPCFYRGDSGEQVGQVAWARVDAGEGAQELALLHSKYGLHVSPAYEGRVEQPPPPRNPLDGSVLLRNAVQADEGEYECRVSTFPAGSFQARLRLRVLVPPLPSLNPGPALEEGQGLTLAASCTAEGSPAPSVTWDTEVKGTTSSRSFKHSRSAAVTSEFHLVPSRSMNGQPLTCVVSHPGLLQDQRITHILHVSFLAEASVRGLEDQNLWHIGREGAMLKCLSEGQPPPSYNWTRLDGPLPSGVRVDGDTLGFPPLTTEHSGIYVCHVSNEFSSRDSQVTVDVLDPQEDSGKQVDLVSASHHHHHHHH
Test: ELISA, phage scFv supernatant 1:50

Binder	OD value [OD]
B1	1.56
B2	1.76
B3	1.59
B4	1.53
B5	1.52
B6	1.45
B7	1.6
B8	1.43
B9	1.45
B10	1.38
B11	1.46
B12	1.49
B13	1.44
